Data from US20260116943A1, “PROCESSES FOR SYNTHESIZING GLUCAGON-LIKE-PEPTIDE 2 (GLP-2) ANALOGUES” (Zealand Pharma A/S, priority 2021, published 2026).
Where two headings read alike, the source gives them in different places.

Key:
[1] = cited from earlier work
[2] = precipitation of ZP1848 in solution with phosphate and NaCl, same conditions as on the column under RPC1; type: physicochemical
Method: Additionally, ZP1848 precipitates at neutral pH in solutions containing NaCl, phosphate, NaOH and high ionic strength.
Below in Table 4.1 various formulations of ZP1848 were prepared in 100 mM NaCl and 45 mM phosphate (the buffers are described in Example 1.12) at different pH and/or concentrations in order to reflect the same conditions in solution as present in the column under RPC1.
Additionally, it was shown that ZP1848 precipitates even at low concentrations at pH 7.5 (0.2 and 0.5 mg/mL).

Question: For “Hy-His-Ala-Asp-Gly-Ser-Phe-Ser-Asp-Glu-Met-Asn-Thr-Ile-Leu-Asp-Asn-Leu-Ala-Ala-Arg-Asp-Phe-Ile-Asn-Trp-Leu-Ile-Gln-Thr-Lys-Ile-Thr-Asp-OH [GLP-2 [1-33]]”, which half-life ([1]; in humans) is on record?
Answer: around 7 minutes

Question: For “H-HGEGTFSSELATILDALAARDFIAWLIATKITDKKKKKK-NH2 [ZP1848]”, which precipitation in solution ([2]; neutral pH, solutions containing NaCl, phosphate, NaOH and high ionic strength) is on record?
Answer: precipitates

Question: What about the “precipitation at low concentrations” value ([2]; pH 7.5, 0.2 and 0.5 mg/mL) of the same molecule?
Answer: precipitates

Question: And the “precipitation in peptide product solution” value ([2]; phosphate buffer/phosphoric acid, neutral pH)?
Answer: precipitates

Question: What about the “time of precipitation after sample preparation” value ([2]; same conditions in solution as on the column during RPC1) of the same molecule?
Answer: within minutes

Question: For “GLP-2 [3-33]: truncated GLP-2 [3-33] (DGSFSDEMNTILDNLAARDFINWLIQTKITD; Glucagon-like peptide 2; UniProt P01275 148-178, looked up, fragment)”, which half-life ([1]; in humans) is on record?
Answer: ~27 min

Question: Which half-life ([1]; Gly substitution at position 2, compared with native GLP-2) does the source give for `CC[C@H](C)[C@H](NC(=O)[C@H](Cc1ccccc1)NC(=O)[C@H](CC(=O)O)NC(=O)[C@H](CCCNC(=N)N)NC(=O)[C@H](C)NC(=O)[C@H](C)NC(=O)[C@H](CC(C)C)NC(=O)[C@H](CC(N)=O)NC(=O)[C@H](CC(=O)O)NC(=O)[C@H](CC(C)C)NC(=O)[C@@H](NC(=O)[C@@H](NC(=O)[C@H](CC(N)=O)NC(=O)[C@H](CCSC)NC(=O)[C@H](CCC(=O)O)NC(=O)[C@H](CC(=O)O)NC(=O)[C@H](CO)NC(=O)[C@H](Cc1ccccc1)NC(=O)[C@H](CO)NC(=O)CNC(=O)[C@H](CC(=O)O)NC(=O)CNC(=O)[C@@H](N)Cc1c[nH]cn1)[C@@H](C)O)[C@@H](C)CC)C(=O)N[C@@H](CC(N)=O)C(=O)N[C@@H](Cc1c[nH]c2ccccc12)C(=O)N[C@@H](CC(C)C)C(=O)N[C@H](C(=O)N[C@@H](CCC(N)=O)C(=O)N[C@H](C(=O)N[C@@H](CCCCN)C(=O)N[C@H](C(=O)N[C@H](C(=O)N[C@@H](CC(=O)O)C(=O)O)[C@@H](C)O)[C@@H](C)CC)[C@@H](C)O)[C@@H](C)CC` [teduglutide, [hGly2] GLP-2] here?
Answer: about two
